Here are results for four molecules from patent US20240085427A1 (published 2024).

Assay [1] has as its target T1, Anterior Gradient 2 (AGR2) (UniProt O95994 21-175).
T1 chain: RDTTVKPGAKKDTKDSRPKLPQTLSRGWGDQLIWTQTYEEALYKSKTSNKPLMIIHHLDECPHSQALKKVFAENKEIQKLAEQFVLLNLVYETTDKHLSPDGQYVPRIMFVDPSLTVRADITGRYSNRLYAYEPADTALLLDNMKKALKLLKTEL
Description: ELISA. On the technique in general: ELISA stands for enzyme-linked immunosorbent assay.

The target of assay [2] is T2, Anterior Gradient 2 (AGR2) (UniProt O95994 21-175, limits assumed).
T2 sequence (looked up): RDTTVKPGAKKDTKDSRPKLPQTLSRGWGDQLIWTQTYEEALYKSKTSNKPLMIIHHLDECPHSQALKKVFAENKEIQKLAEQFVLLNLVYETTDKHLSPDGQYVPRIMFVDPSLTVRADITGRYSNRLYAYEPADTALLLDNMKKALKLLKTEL
Description: cell-based or functional assay.

The target of assay [3] is T2, Anterior Gradient 2 (AGR2). As to the kind of experiment: ELISA and SPR (so in the source); the same KD in mass units.
The target in assay [4] is T3, bovine serum albumin (BSA) (bovine, UniProt P02769 25-607).
T3 construct: Control coating in ELISA; also called control (BSA)
Description: ELISA on coated plates (FIG. 6A).

In assay [5] the target is T2, Anterior Gradient 2 (AGR2). Description: ELISA and SPR (so in the source); purified scFv on AGR2.
In assay [6] the target is T1, Anterior Gradient 2 (AGR2). As to the kind of experiment: BLI (Octet). A general note: BLI is a label-free optical method that tracks binding on a fibre tip over time.
The target in assay [7] is Anterior Gradient 2 (AGR2) (UniProt O95994). As to the kind of experiment: cell-based or functional assay.

T3 sequence (P02769 25-607 limits assumed): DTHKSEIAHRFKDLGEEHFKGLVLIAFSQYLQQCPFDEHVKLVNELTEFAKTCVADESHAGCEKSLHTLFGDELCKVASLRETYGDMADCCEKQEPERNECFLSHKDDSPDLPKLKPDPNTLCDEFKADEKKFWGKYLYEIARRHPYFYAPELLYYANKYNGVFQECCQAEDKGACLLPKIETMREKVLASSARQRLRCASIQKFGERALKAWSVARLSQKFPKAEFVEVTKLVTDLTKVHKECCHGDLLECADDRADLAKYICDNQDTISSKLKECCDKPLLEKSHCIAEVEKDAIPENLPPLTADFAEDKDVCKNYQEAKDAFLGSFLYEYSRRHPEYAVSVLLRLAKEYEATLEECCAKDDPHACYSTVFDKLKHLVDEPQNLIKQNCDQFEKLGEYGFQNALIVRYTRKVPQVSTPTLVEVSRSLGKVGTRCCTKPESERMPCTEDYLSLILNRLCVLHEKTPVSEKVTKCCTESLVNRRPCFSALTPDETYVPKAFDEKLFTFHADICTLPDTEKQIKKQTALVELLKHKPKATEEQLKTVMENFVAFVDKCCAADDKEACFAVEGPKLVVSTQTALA

B1: anti-AGR2 scFv clone 19 (scFv)
scFv: EVQLLESGGGLVQPGGSLRLSCAASGFTFSSYAMSWVRQAPGKGLEWVSAIASQGVATGYADSVKGRFTISRDNSKNTLYLQMNSLRAEDTAVYYCAKLDQHFDYWGQGTLVTVSSGGGGSGGGGSGGGGSTDIQMTQSPSSLSASVGDRVTITCRASQSISSYLNWYQQKPGKAPKLLIYQASRLQSGVPSRFSGSGSGTDFTLTISSLQPEDFATYYCQQARRLPLTFGQGTKVEIK
B1 yielded an EC50 in assay [1] of over 100 µg/mL.

B2: anti-AGR2 scFv clone-15 (scFv)
scFv: EVQLLESGGGLVQPGGSLRLSCAASGFTFSSYAMSWVRQAPGKGLEWVSGISAQGAHTTYADSVKGRFTISRDNSKNTLYLQMNSLRAEDTAVYYCAKTYKGFDYWGQGTLVTVSSGGGGSGGGGSGGGGSTDIQMTQSPSSLSASVGDRVTITCRASQSISSYLNWYQQKPGKAPKLLIYSASRLQSGVPSRFSGSGSGTDFTLTISSLQPEDFATYYCQQGRRMPPTFGQGTKVEIK
notes: Found by phage display, cloned into pET22b, produced and purified in BL21(DE3) E. coli; also called AGR2-scFv-15; scFv-15
Turning to B2, in assay [2], the “EC50 in the same TDCC assay (Capan1 cells with human PBMCs), scFv alone as comparator” value was 19.8 µM. Also, the Kd in assay [3] was 4.69 µg/mL; in assay [5] it was 180 nM; in assay [6] it was 1.57 nM. In addition, in assay [4], the binding result is reported as “no binding”.

B3: anti-AGR2 scFv clone 26 (scFv)
scFv: EVQLLESGGGLVQPGGSLRLSCAASGFTFSSYAMSWVRQAPGKGLEWVSSIQGQGRITRYADSVKGRFTISRDNSKNTLYLQMNSLRAEDTAVYYCAKRAIMFDYWGQGTLVTVSSGGGGSGGGGSGGGGSTDIQMTQSPSSLSASVGDRVTITCRASQSISSYLNWYQQKPGKAPKLLIYHASLLQSGVPSRFSGSGSGTDFTLTISSLQPEDFATYYCQQARYWPLTFGQGTKVEIK
Turning to B3, the EC50 in assay [1] is over 100 µg/mL.

B4: human targeted AGR2xCD3 BiTE (anti-AGR2 scFv clone-15 linked to anti-CD3 scFv derived from Orthoclone OKT3) (bispecific antibody, part only; not given: anti-CD3 scFv, linker, His tag, not shown: small tags and cut ends)
chain, part: EVQLLESGGGLVQPGGSLRLSCAASGFTFSSYAMSWVRQAPGKGLEWVSGISAQGAHTTYADSVKGRFTISRDNSKNTLYLQMNSLRAEDTAVYYCAKTYKGFDYWGQGTLVTVSSGGGGSGGGGSGGGGSTDIQMTQSPSSLSASVGDRVTITCRASQSISSYLNWYQQKPGKAPKLLIYSASRLQSGVPSRFSGSGSGTDFTLTISSLQPEDFATYYCQQGRRMPPTFGQGTKVEIKEVQLLESGGGLVQPGGSLRLSCAASGFTFSSYAMSWVRQAPGKGLEWVSGISAQGAHTTYADSVKGRFTISRDNSKNTLYLQMNSLRAEDTAVYYCAKTYKGFDYWGQGTLVTVSSGGGGSGGGGSGGGGSTDIQMTQSPSSLSASVGDRVTITCRASQSISSYLNWYQQKPGKAPKLLIYSASRLQSGVPSRFSGSGSGTDFTLTISSLQPEDFATYYCQQGRRMPPTFGQGTKVEIK
B4 gave an EC50 on Capan1 cell viability, BiTE alone (no PBMCs) in assay [7] of 16.5 µM.

As a reminder, the EC50 is the midpoint of the concentration-response curve. Lower therefore signals higher potency in that assay. Usually Kd stands for the free concentration of one partner at which half of the binding sites on the other are occupied at equilibrium, for simple one-to-one binding.
